The numbers were not newly measured in paper PMC10229114, which cites them from elsewhere.

pKd: −log10 of the molar value.

One data set has as its target SLy1 SAM (Homo sapiens) (UniProt O75995).
In the next data set the target is SDF-1α (Homo sapiens) (UniProt P48061).

Chain of SDF-1α (P48061 24-88): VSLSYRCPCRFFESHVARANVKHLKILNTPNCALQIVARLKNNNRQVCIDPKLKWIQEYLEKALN
Chain of SLy1 SAM (O75995 252-316): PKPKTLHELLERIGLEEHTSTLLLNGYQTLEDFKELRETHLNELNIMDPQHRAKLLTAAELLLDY

Broadly, the pKd is −log10 of the Kd, conventionally taken in molar units. Turning to SLy1 SAM (from UniProt O75995), in the data set with SLy1 SAM (Homo sapiens), the pKd is 3.93.

In the case of SDF-1α (from UniProt P48061), the pKd with SDF-1α (Homo sapiens) is 3.82.
